Results taken from PMC10558642 (2023).

B1: His-OTUD5 (natural protein)
chain: MTILPKKKPPPPDADPANEPPPPGPMPPAPRRGGGVGVGGGGTGVGGGDRDRDSGVVGARPRASPPPQGPLPGPPGALHRWALAVPPGAVAGPRPQQASPPPCGGPGGPGGGPGDALGAAAAGVGAAGVVVGVGGAVGVGGCCSGPGHSKRRRQAPGVGAVGGGSPEREEVGAGYNSEDEYEAAAARIEAMDPATVEQQEHWFEKALRDKKGFIIKQMKEDGACLFRAVADQVYGDQDMHEVVRKHCMDYLMKNADYFSNYVTEDFTTYINRKRKNNCHGNHIEMQAMAEMYNRPVEVYQYSTGTSAVEPINTFHGIHQNEDEPIRVSYHRNIHYNSVVNPNKATIGVGLGLPSFKPGFAEQSLMKNAIKTSEESWIEQQMLEDKKRATDWEATNEAIEEQVARESYLQWLRDQEKQARQVRGPSQPRKASATCSSATAAASSGLEEWTSRSPRQRSSASSPEHPELHAELGMKPPSPGTVLALAKPPSPCAPGTSSQFSAGADRATSPLVSLYPALECRALIQQMSPSAFGLNDWDDDEILASVLAVSQQEYLDSMKKNKVHRDPPPDKS
modifications: Red-tris-NTA dye on the His tag (MST only)
B2: recombinant GPX4 protein (SPR and MST) (natural protein)
chain: MSLGRLCRLLKPALLCGALAAPGLAGTMCASRDDWRCARSMHEFSAKDIDGHMVNLDKYRGFVCIVTNVASQUGKTEVNYTQLVDLHARYAECGLRILAFPCNQFGKQEPGSNEEIKEFAAGYNVKFDMFSKICVNGDDAHPLWKWMKIQPKGKGILGNAIKWNFTKFLIDKNGCVVKRYGPMEEPLVIEKDLPHYF

Experiments:
[1] = target: B2; assay: SPR
His-OTUD5 = target: B1; assay: MST

Kd [1] | Kd (His-OTUD5) | Binder
720 nM |  | B1
 | 230 nM | B2
